Measurements from the supplement of paper PMC12764529.
± gives the half width of the 95% confidence interval.

assay: folding stability dG unfold from trypsin proteolysis; higher = more stable
Summary of the method: (§1)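 How resistant each design was to proteolysis was captured as K50, inferred by Bayesian fitting of sequencing counts. Unfolding free energy was then derived relative to a sequence-predicted unfolded-state K50 and a shared folded-state K50, per protease or combined. Digestion used trypsin and chymotrypsin at 11 threefold-diluted concentrations plus a no-protease condition, on mini-proteins under 80 residues without cysteine in a PA-tagged cDNA display construct. Designs were kept only when AlphaFold2 dimer inter-PAE was above 15.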

Sequence | folding stability dG unfold
SAGGMIPPEELAARAEAVREAAPASGEVVRTTVVLPSPGLVTRVDLVYEPGAGRITVESVSEVPPELLSAGG [r13_37_JUSTAS] | 0.496 ± 0.027 kcal/mol
SAGGSAGGSPKIELLDSRPRPDGSLVELLAIEAEDEIRLLVIVTHPDGVDIRFFEPEYPDLDLSAGGSAGGS [r12_315_TrMRF] | 0.386 ± 0.15 kcal/mol
SAGGVYVIKIKFEFGDGLKAELFIMFQSWEQAKEQAENLARNHGLRIDEIEVVPIKPMPPPDPDDQKSAGGS [r8_364_TrROS] | 2.46 ± 0.14 kcal/mol
SAGGDLLKELARELGFNVEIERDPDDGTIRITIRPPEGHYVTITIKIDYDPENGKLKLEIDEIKVSPPSAGG [r13_936_TrROS] | 3.68 ± 0.17 kcal/mol
SAGGMKTITLEEAKALAEKAAEKGETVEIEVTLPDGTVVKFKVDAKTKKVELVEVKKLPAPPEDPEKKSAGG [r13_839_TrROS_Hall] | 1.12 ± 0.046 kcal/mol
SAGGSAGGSSMTLTIEPPEEGPPLLVEVDETEEIVTGDGTPVKVTTLKITIGEEEMTLTVTTLSAGGSAGGS [r20_39_JUSTAS] | 1.71 ± 0.098 kcal/mol
SAGGSAGGSAGGGMTTTTETTTTTFPTNNLTTTTTTTTTLETSTGTTLSSTSTTTVTASSAGGSAGGSAGGS [r10_469_JUSTAS] | 1.96 ± 0.18 kcal/mol
SAGMVIAKVTVKLPNGETKTFVIEAESPEELEEQIIKELEKEYGVSPEEFPIVEIKVEFYDPEKGGLLLSAG [r5_482_TrMRF] | 2.13 ± 0.089 kcal/mol
SSIPLDVPPGERVVRKGVFPDGSELTATYDPTTGRWTVTYYPPDGSVRTSVVPGAALASLPPGFTETRLESA [r9_1110_JUSTAS] | 1.45 ± 0.043 kcal/mol
SAGGSAGGKTLELEVEALDPITGEPYKVKIIYDPETGTATILVTHPNGKKSLFTVPAGEALKLLSAGGSAGG [r6_219_TrMRF] | 2.63 ± 0.19 kcal/mol
SAKKVKPIAKLTITDENGNTYEITVTVKEVDGKLVVEAEVYNKDGELVARVTAVFDNGKLVAVSIELLPSAG [r14_828_TrROS_Hall] | 2.11 ± 0.13 kcal/mol
SAGGMIEVTIPLEEYFDENGNPTEEAKKKIEEAKKKAEELKKKGEPAEVKVTVVEPEPYVGPDNPELVSAGG [r13_731_JUSTAS] | 0.278 ± 0.29 kcal/mol
SAGGSAGGSAGGFNIKLDVEIDPENYVIKNKLEVRDGGEERRFEMWIPIRVPPADPDDPSAGGSAGGSAGGS [r10_1049_TrROS] | -0.135 ± 0.29 kcal/mol
SAGGSASIPEKIAEELKEKYGVTEIKILSVDPNGIIKVELKSIEKNEGKLIEKTYKVTVKVPKNLLSAGGSA [r15_646_JUSTAS] | 1.86 ± 0.071 kcal/mol
SAGGGSSMPVPVRVAEFNVPDSRPEELIERAKELLEADEIDVLVVPSPAAQEALKAAFPDFPVPVLVRSAGG [r13_353_JUSTAS] | -0.646 ± 0.085 kcal/mol
SVKTSSSMAPPDRIVLKITDPETDKVTTITVPLDLPEDEPVAVHDPEAPSERTVAEIKALAEAGKSVSGLSA [r9_250_JUSTAS] | -0.176 ± 0.16 kcal/mol
SAGEPIRIKIMIMNPDGKLRPIVEIPIPPDDIKEIEIKDDSIEIELPGDGKTLMFRINNYPIMIQIEDSAGG [r19_408_TrROS] | 2.06 ± 0.029 kcal/mol
SAGGSAGGSAGGDNRLPIPVKTPVVVVPADEAREEIRATLPPDAYRVEEERGDYVTISLGSAGGSAGGSAGG [r7_670_JUSTAS] | 0.481 ± 0.044 kcal/mol
SAGGSAGGMKAVITQPPDGTATVEIYDETTGKTTTKTIPADQPEEIEALIAGKVDEVTTTPAPASAGGSAGG [r6_640_JUSTAS] | 2.09 ± 0.12 kcal/mol
SAGGSAAPPVTVEVLPDGRIVITRGDAVASSVTPVPPDATITATFPATGETVTITRRAPEVTVTPASAGGSA [r15_235_JUSTAS] | -0.616 ± 0.29 kcal/mol
SAGGSAGGSAGGSASMSVTLERLPNGTVVKITTKSVDPSTGSVDYKPSVEKIPPGVALDSAGGSAGGSAGGS [r4_72_JUSTAS] | -0.437 ± 0.18 kcal/mol

assay: folding stability dG unfold from chymotrypsin proteolysis; higher = more stable
Summary of the method: as §1

Sequence | folding stability dG unfold
SAGGSAGGMIIRVEFKNGEVKTFVVKSPEEAKKKLAESLGLKEDEIPLDEIKSVEILNLDEALSSAGGSAGG [r6_586_TrMRF] | 4.1 ± 0.073 kcal/mol
SAGGEEEKVVLTPEEIERLLKELAEALGLEVTITEIEVEEDYVTITVEIKVDGKTLTLTLKLRIEPEPSAGG [r13_652_TrROS_Hall] | 5.23 ± 0.15 kcal/mol
SSSPLPSPVTLPNGTVVYYFPDTGLVLTLDPKTGTGTVTYVTTDPQGNPTFFPSTVTFDPPTGKVVEVVASA [r9_122_JUSTAS] | 2.77 ± 0.033 kcal/mol
SAGGSAGGSEPVTVMFWFDSPEEIDELIDELKGAGIKKVEMEPFPGRYWLTITVDGAEIHIMFSAGGSAGGS [r12_846_TrROS] | 3.786 ± 0.031 kcal/mol
SAGMVTISVTRPSSGTYVLNISNPLTGETETITLSTADPAAFKATAEAIAAELEAKGYPVKINLTPTAGSAG [r5_815_JUSTAS] | 3.788 ± 0.014 kcal/mol
SKVKVYIIKKDKVIPEIELDVSSVEEAVEKVLEYISKLPKNTPYLVRIEVEKYDPATGKKSYGTLLLPVGSA [r9_245_TrMRF] | 4.53 ± 0.095 kcal/mol
SAGGPPYYMIKIRYPDNGKEYEIPPGIKVHRDPNNEVYIMFRSPAAADDLVDEIAPTNGLRVEIEPFSAGGS [r8_131_TrROS] | 1.07 ± 0.24 kcal/mol
SAGGSAGGSKPPVKTIPRWIPFPPGQTPNELVDELRKLFPPGMEVDVEYDPEPGYVRVSITFRSAGGSAGGS [r12_12_TrROS] | 1.86 ± 0.047 kcal/mol
SAGGSAGGMSITINLPNGVTLTITTGDNDVYPITITYPGGETKTLTVTEPLSSISQVISNIVNSSAGGSAGG [r6_27_JUSTAS] | 3.28 ± 0.035 kcal/mol
SAGGSAGGSDPLVSFPLEVELPGGEKVELHFIPGPRLVIARFPDRPVLFYTDGDGVITRVDPISAGGSAGGS [r12_47_TrMRF] | -0.362 ± 0.11 kcal/mol
SAGGSAGGSAGGEIVIPVDGKLVVIKLKNGKKITVPVEDLKELLKKLGIKNAKIEVVPAKSAGGSAGGSAGG [r7_235_TrROS_Hall] | 2.82 ± 0.049 kcal/mol
SAGGSAGGSWYLRIEYMNGKEREFPFPPDMPGQPAEEIADKLGSPNMKVEFYDPEGEPREFDISAGGSAGGS [r12_411_TrROS] | 0.754 ± 0.13 kcal/mol
SAGGSAGGMPVTPEEARAIAEELRAELGATTVEVEVSPDGRTVTITITSSEDGKVLTRTIEFEASAGGSAGG [r6_550_JUSTAS] | 2.33 ± 0.036 kcal/mol
SAGGSMSLEEIKKLEIELEKEEGEKLKAEVTVLPDGKLFVRVNGKLFEIDLKTGKIVEVKELPPDESAGGSA [r2_374_TrROS_Hall] | 2.38 ± 0.057 kcal/mol
SAGMKIEPTKDYVLITVNGPEKALETIKKLKELIPNPEILDIKPHPHPNGENPWTIIIPTKNIPPEVLFSAG [r5_857_TrMRF] | 0.519 ± 0.14 kcal/mol
SAGGSMVTLTTTETSVEGERTVEVSTLGSKTVTTTFEPESDSSTVTTSPVPPVAGPELLALNLLLLSAGGSA [r2_482_JUSTAS] | -0.102 ± 0.18 kcal/mol
SAGGSAGGPIKIKAKIFDPNGQPQEHEGEIDNPNGEPYKIKIDIFVLPDPDDEPNLVINVEIEPSAGGSAGG [r6_335_TrROS] | 3.33 ± 0.17 kcal/mol
SAGGSAGGSAGGKEYKVVEFEVLLEDPEPVKAVALIDPDGPVRVFLGDKVYTFKRDELGSAGGSAGGSAGGS [r10_649_TrMRF] | 1.13 ± 0.13 kcal/mol
SAGGSAGGSAGGKKIIIVVPKEEMTEEELKKLIEELPPGEEIEIEIIVVPPPPPPPKEKKSAGGSAGGSAGG [r7_979_TrROS_Hall] | 1.92 ± 0.23 kcal/mol
SGMTSSFEVSPVGDILVVTVSLHFPGLGLSSTASATQDPSSDSMSLDLTIPFPPEDLAPLSLSLSLKPPESA [r9_887_JUSTAS] | 3.62 ± 0.27 kcal/mol
SAPDAKVEFNPKLVRKGDELLLLVEVKLSPDVDEVVVEIEVTGPDGSPFKVEAVQFPETGTVLVKAVLPASA [r9_159_TrMRF] | 2.04 ± 0.061 kcal/mol

Sequence | folding stability dG unfold
SAGGMIPPEELAARAEAVREAAPASGEVVRTTVVLPSPGLVTRVDLVYEPGAGRITVESVSEVPPELLSAGG [r13_37_JUSTAS] | 0.414 ± 0.032 kcal/mol
SAGGSAGGSPKIELLDSRPRPDGSLVELLAIEAEDEIRLLVIVTHPDGVDIRFFEPEYPDLDLSAGGSAGGS [r12_315_TrMRF] | 0.008 ± 0.18 kcal/mol
SAGGVYVIKIKFEFGDGLKAELFIMFQSWEQAKEQAENLARNHGLRIDEIEVVPIKPMPPPDPDDQKSAGGS [r8_364_TrROS] | 4.13 ± 0.14 kcal/mol
SAGGDLLKELARELGFNVEIERDPDDGTIRITIRPPEGHYVTITIKIDYDPENGKLKLEIDEIKVSPPSAGG [r13_936_TrROS] | 3.63 ± 0.14 kcal/mol
SAGGMKTITLEEAKALAEKAAEKGETVEIEVTLPDGTVVKFKVDAKTKKVELVEVKKLPAPPEDPEKKSAGG [r13_839_TrROS_Hall] | 3.07 ± 0.088 kcal/mol
SAGGSAGGSSMTLTIEPPEEGPPLLVEVDETEEIVTGDGTPVKVTTLKITIGEEEMTLTVTTLSAGGSAGGS [r20_39_JUSTAS] | 2.46 ± 0.057 kcal/mol
SAGGSAGGSAGGGMTTTTETTTTTFPTNNLTTTTTTTTTLETSTGTTLSSTSTTTVTASSAGGSAGGSAGGS [r10_469_JUSTAS] | 0.234 ± 0.12 kcal/mol
SAGMVIAKVTVKLPNGETKTFVIEAESPEELEEQIIKELEKEYGVSPEEFPIVEIKVEFYDPEKGGLLLSAG [r5_482_TrMRF] | 2.23 ± 0.033 kcal/mol
SSIPLDVPPGERVVRKGVFPDGSELTATYDPTTGRWTVTYYPPDGSVRTSVVPGAALASLPPGFTETRLESA [r9_1110_JUSTAS] | 2.28 ± 0.034 kcal/mol
SAGGSAGGKTLELEVEALDPITGEPYKVKIIYDPETGTATILVTHPNGKKSLFTVPAGEALKLLSAGGSAGG [r6_219_TrMRF] | 3.456 ± 0.033 kcal/mol
SAKKVKPIAKLTITDENGNTYEITVTVKEVDGKLVVEAEVYNKDGELVARVTAVFDNGKLVAVSIELLPSAG [r14_828_TrROS_Hall] | 3.03 ± 0.072 kcal/mol
SAGGMIEVTIPLEEYFDENGNPTEEAKKKIEEAKKKAEELKKKGEPAEVKVTVVEPEPYVGPDNPELVSAGG [r13_731_JUSTAS] | 0.569 ± 0.059 kcal/mol
SAGGSAGGSAGGFNIKLDVEIDPENYVIKNKLEVRDGGEERRFEMWIPIRVPPADPDDPSAGGSAGGSAGGS [r10_1049_TrROS] | 1.39 ± 0.27 kcal/mol
SAGGSASIPEKIAEELKEKYGVTEIKILSVDPNGIIKVELKSIEKNEGKLIEKTYKVTVKVPKNLLSAGGSA [r15_646_JUSTAS] | 2.23 ± 0.034 kcal/mol
SAGGGSSMPVPVRVAEFNVPDSRPEELIERAKELLEADEIDVLVVPSPAAQEALKAAFPDFPVPVLVRSAGG [r13_353_JUSTAS] | -0.339 ± 0.17 kcal/mol
SVKTSSSMAPPDRIVLKITDPETDKVTTITVPLDLPEDEPVAVHDPEAPSERTVAEIKALAEAGKSVSGLSA [r9_250_JUSTAS] | -0.55 ± 0.35 kcal/mol
SAGEPIRIKIMIMNPDGKLRPIVEIPIPPDDIKEIEIKDDSIEIELPGDGKTLMFRINNYPIMIQIEDSAGG [r19_408_TrROS] | 3.2 ± 0.036 kcal/mol
SAGGSAGGSAGGDNRLPIPVKTPVVVVPADEAREEIRATLPPDAYRVEEERGDYVTISLGSAGGSAGGSAGG [r7_670_JUSTAS] | 1.05 ± 0.022 kcal/mol
SAGGSAGGMKAVITQPPDGTATVEIYDETTGKTTTKTIPADQPEEIEALIAGKVDEVTTTPAPASAGGSAGG [r6_640_JUSTAS] | 1.35 ± 0.1 kcal/mol
SAGGSAAPPVTVEVLPDGRIVITRGDAVASSVTPVPPDATITATFPATGETVTITRRAPEVTVTPASAGGSA [r15_235_JUSTAS] | 1.19 ± 0.017 kcal/mol
SAGGSAGGSAGGSASMSVTLERLPNGTVVKITTKSVDPSTGSVDYKPSVEKIPPGVALDSAGGSAGGSAGGS [r4_72_JUSTAS] | -0.448 ± 0.1 kcal/mol
